Measurements from publication PMC6660512.
Values belong to the molecule of their own block, whether it stands above or below them.

How the values were obtained:
[1] = target: Nogo-A Δ20 (Rattus norvegicus) (UniProt Q9JK11); conditions: cited from earlier work
His-tagged Nogo-A-Δ20 = test: MST; Nanotemper Monolith NT.115, as described in ref. 29; SPARC and Nogo-A-Δ20 (Suppl. Figure 4m)

Sequence of UniProt Q9JK11 (Q9JK11 544-725, stated change not applied): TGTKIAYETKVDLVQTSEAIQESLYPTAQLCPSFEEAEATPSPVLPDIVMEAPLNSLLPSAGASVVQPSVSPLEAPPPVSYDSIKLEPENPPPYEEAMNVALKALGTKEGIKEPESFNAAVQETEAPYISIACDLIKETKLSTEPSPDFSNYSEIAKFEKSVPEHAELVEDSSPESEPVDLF

Molecule: S1PR2 (from UniProt O95136)
- Kd [1]: 280 nM

- Kd (His-tagged Nogo-A-Δ20): 150 nM
B1: SPARC (construct used for microscale thermophoresis not stated) (natural protein)
chain: APQQEALPDETEVVEETVAEVTEVSVGANPVQVEVGEFDDGAEETEEEVVAENPCQNHHCKHGKVCELDENNTPMCVCQDPTSCPAPIGEFEKVCSNDNKTFDSSCHFFATKCTLEGTKKGHKLHLDYIGPCKYIPPCLDSELTEFPLRMRDWLKNVLVTLYERDEDNNLLTEKQKLRVKKIHENEKRLEAGDHPVELLARDFEKNYNMYIFPVHWQFGQLDQHPIDGYLSHTELAPLRAPLIPMEHCTTRFFETCDLDNDKYIALDEWAGCFGIKQKDIDKDLVI
